B1: Autophagy-related protein 2 homolog A (Homo sapiens), Q2TAZ0 (parent)
chain: MSRWLWPWSNCVKERVCRYLLHHYLGHFFQEHLSLDQLSLDLYKGSVALRDIHLEIWSVNEVLESMESPLELVEGFVGSIEVAVPWAALLTDHCTVRVSGLQLTLQPRRGPAPGAADSQSWASCMTTSLQLAQECLRDGLPEPSEPPQPLEGLEMFAQTIETVLRRIKVTFLDTVVRVEHSPGDGERGVAVEVRVQRLEYCDEAVRDPSQAPPVDVHQPPAFLHKLLQLAGVRLHYEELPAQEEPPEPPLQIGSCSGYMELMVKLKQNEAFPGPKLEVAGQLGSLHLLLTPRQLQQLQELLSAVSLTDHEGLADKLNKSRPLGAEDLWLIEQDLNQQLQAGAVAEPLSPDPLTNPLLNLDNTDLFFSMAGLTSSVASALSELSLSDVDLASSVRSDMASRRLSAQAHPAGKMAPNPLLDTMRPDSLLKMTLGGVTLTLLQTSAPSSGPPDLATHFFTEFDATKDGPFGSRDFHHLRPRFQRACPCSHVRLTGTAVQLSWELRTGSRGRRTTSMEVHFGQLEVLECLWPRGTSEPEYTEILTFPGTLGSQASARPCAHLRHTQILRRVPKSRPRRSVACHCHSELALDLANFQADVELGALDRLAALLRLATVPAEPPAGLLTEPLPAMEQQTVFRLSAPRATLRLRFPIADLRPEPDPWAGQAVRAEQLRLELSEPQFRSELSSGPGPPVPTHLELTCSDLHGIYEDGGKPPVPCLRVSKALDPKSTGRKYFLPQVVVTVNPQSSSTQWEVAPEKGEELELSVESPCELREPEPSPFSSKRTMYETEEMVIPGDPEEMRTFQSRTLALSRCSLEVILPSVHIFLPSKEVYESIYNRINNDLLMWEPADLLPTPDPAAQPSGFPGPSGFWHDSFKMCKSAFKLANCFDLTPDSDSDDEDAHFFSVGASGGPQAAAPEAPSLHLQSTFSTLVTVLKGRITALCETKDEGGKRLEAVHGELVLDMEHGTLFSVSQYCGQPGLGYFCLEAEKATLYHRAAVDDYPLPSHLDLPSFAPPAQLAPTIYPSEEGVTERGASGRKGQGRGPHMLSTAVRIHLDPHKNVKEFLVTLRLHKATLRHYMALPEQSWHSQLLEFLDVLDDPVLGYLPPTVITILHTHLFSCSVDYRPLYLPVRVLITAETFTLSSNIIMDTSTFLLRFILDDSALYLSDKCEVETLDLRRDYVCVLDVDLLELVIKTWKGSTEGKLSQPLFELRCSNNVVHVHSCADSCALLVNLLQYVMSTGDLHPPPRPPSPTEIAGQKLSESPASLPSCPPVETALINQRDLADALLDTERSLRELAQPSGGHLPQASPISVYLFPGERSGAPPPSPPVGGPAGSLGSCSEEKEDEREEEGDGDTLDSDEFCILDAPGLGIPPRDGEPVVTQLHPGPIVVRDGYFSRPIGSTDLLRAPAHFPVPSTRVVLREVSLVWHLYGGRDFGPHPGHRARTGLSGPRSSPSRCSGPNRPQNSWRTQGGSGRQHHVLMEIQLSKVSFQHEVYPAEPATGPAAPSQELEERPLSRQVFIVQELEVRDRLASSQINKFLYLHTSERMPRRAHSNMLTIKALHVAPTTNLGGPECCLRVSLMPLRLNVDQDALFFLKDFFTSLVAGINPVVPGETSAEARPETRAQPSSPLEGQAEGVETTGSQEAPGGGHSPSPPDQQPIYFREFRFTSEVPIWLDYHGKHVTMDQVGTFAGLLIGLAQLNCSELKLKRLCCRHGLLGVDKVLGYALNEWLQDIRKNQLPGLLGGVGPMHSVVQLFQGFRDLLWLPIEQYRKDGRLMRGLQRGAASFGSSTASAALELSNRLVQAIQATAETVYDILSPAAPVSRSLQDKRSARRLRRGQQPADLREGVAKAYDTVREGILDTAQTICDVASRGHEQKGLTGAVGGVIRQLPPTVVKPLILATEATSSLLGGMRNQIVPDAHKDHALKWRSDSAQD
partner: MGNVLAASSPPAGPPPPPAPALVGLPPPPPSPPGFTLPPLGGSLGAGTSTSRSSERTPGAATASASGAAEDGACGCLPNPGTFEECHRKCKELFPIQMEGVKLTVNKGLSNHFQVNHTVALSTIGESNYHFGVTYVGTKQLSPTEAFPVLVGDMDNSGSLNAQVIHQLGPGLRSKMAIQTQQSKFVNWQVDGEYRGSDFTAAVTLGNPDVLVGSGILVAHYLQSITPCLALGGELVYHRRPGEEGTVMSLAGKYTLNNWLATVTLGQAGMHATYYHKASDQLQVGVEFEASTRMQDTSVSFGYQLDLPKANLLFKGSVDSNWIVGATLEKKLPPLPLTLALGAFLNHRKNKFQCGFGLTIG
B2: Autophagy-related protein 2 homolog A (Homo sapiens), Q2TAZ0 (parent)
chain: B1 chain
partner: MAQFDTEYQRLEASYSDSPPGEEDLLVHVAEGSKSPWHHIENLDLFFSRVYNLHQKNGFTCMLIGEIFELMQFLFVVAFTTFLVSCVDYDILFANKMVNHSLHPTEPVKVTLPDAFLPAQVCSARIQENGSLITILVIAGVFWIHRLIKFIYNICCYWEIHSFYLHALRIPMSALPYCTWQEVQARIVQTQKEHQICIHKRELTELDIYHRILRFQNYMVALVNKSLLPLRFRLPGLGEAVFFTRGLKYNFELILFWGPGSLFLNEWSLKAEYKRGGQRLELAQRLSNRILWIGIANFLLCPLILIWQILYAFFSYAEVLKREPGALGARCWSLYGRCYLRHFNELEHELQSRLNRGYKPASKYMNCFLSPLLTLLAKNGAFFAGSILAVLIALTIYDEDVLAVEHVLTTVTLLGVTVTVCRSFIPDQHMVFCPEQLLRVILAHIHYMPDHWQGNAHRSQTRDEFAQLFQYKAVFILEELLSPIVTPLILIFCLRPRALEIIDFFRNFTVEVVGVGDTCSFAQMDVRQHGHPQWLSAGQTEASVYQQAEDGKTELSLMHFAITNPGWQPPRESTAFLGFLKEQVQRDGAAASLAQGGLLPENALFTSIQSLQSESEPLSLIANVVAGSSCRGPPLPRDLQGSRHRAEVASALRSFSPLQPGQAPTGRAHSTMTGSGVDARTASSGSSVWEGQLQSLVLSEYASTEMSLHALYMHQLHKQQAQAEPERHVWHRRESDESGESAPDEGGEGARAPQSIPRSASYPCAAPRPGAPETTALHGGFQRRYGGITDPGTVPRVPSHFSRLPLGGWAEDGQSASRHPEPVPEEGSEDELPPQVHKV

Variants of: B1
Details: with tom40_human TOMM40, O96008

| effect of a mutation on the interaction | Variant |
| --- | --- |
| disrupting interaction strength | L1798A;L1800A;L1804A |
| decreasing interaction strength | R1777A;R1780A;R1784A;L1798A;L1800A;L1804A |
| decreasing interaction strength | R1777A;R1780A;R1784A |

Variants of: B2
Details: with atg9a_human ATG9A

| effect of a mutation on the interaction | Variant |
| --- | --- |
| disrupting interaction strength | Y1395A;F1396A;S1397A |

From IntAct's records for PubMed 31412244
